Values of other authors in article PMC7671103.
Several values for one entry are separate records, joined by “and”; a condition that tells them apart may be missing. Equal values may be shown once.

Biological target: CoV main protease (Mpro) (SARS-CoV) (UniProt P0C6X7)

Substance: CoV main protease (Mpro) (from UniProt P0C6X7)
- Kd: 800 nM and 2000 nM
